T1: cMR1 (core RAG1, MBP fusion);cMR2 (core RAG2, MBP fusion) (;, UniProt P15919;P21784 384-1040;1-387, |)
T1 sequence 1: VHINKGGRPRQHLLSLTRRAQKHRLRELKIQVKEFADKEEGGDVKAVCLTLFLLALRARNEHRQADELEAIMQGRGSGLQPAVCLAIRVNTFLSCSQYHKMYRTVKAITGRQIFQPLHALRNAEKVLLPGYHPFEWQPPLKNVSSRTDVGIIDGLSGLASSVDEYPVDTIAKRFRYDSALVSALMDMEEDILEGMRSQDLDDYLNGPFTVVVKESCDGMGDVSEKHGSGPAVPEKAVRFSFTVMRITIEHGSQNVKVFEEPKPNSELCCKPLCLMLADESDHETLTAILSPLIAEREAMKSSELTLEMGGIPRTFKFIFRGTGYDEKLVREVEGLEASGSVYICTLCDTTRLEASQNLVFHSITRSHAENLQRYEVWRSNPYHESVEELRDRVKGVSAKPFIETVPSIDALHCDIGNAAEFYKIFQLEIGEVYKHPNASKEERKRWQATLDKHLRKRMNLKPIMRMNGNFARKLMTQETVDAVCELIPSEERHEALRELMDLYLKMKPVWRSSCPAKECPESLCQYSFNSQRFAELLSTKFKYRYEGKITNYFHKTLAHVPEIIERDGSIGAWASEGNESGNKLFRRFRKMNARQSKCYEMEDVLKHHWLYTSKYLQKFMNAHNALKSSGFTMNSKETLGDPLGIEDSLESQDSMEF
T1 sequence 2: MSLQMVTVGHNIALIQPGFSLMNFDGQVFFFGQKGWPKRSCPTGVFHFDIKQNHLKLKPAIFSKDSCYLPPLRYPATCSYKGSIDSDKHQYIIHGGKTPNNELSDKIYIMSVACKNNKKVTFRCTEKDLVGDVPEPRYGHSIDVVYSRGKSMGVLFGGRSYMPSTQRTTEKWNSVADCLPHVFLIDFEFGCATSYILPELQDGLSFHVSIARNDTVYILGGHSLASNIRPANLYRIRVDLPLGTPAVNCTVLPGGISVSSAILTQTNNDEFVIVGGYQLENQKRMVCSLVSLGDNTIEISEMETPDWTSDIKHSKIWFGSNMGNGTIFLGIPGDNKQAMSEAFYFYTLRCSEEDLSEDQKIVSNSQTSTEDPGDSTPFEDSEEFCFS

B1: bps6197 (dsDNA)
DNA 1: TCCCCGAAAAGTGCCACCTGACGTCTAAGAAACCATTATTATCATGACATTAACCTATAAA
DNA 2: TTTATAGGTTAATGTCATGATAATAATGGTTTCTTAGACGTCAGGTGGCACTTTTCGGGGA

Tests used:
HMGB1 Tailless [1] = biological target: T2, HMGB1 Tailless (UniProt P09429 1-163); assay: EMSA; settings: EMSA as in ref 30; binding buffer, salt, pH and temperature not given in the material; scale: fold more protein needed than for bps6197
HMGB1 full-length [2] = biological target: T3, HMGB1 full-length (UniProt P09429 1-215); assay: EMSA; settings: EMSA as in ref 30; binding buffer, salt, pH and temperature not given in the material; scale: fold more protein needed than for bps6197
[3] = biological target: T1, cMR1 (core RAG1, MBP fusion);cMR2 (core …); assay: EMSA; without HMGB1; similar to 23-RSS, slightly more susceptible to cold 23-RSS; EMSA as in ref 30; binding buffer, salt, pH and temperature not given in the material; settings: protein: recombinant;recombinant; tags: N-terminal MBP;N-terminal MBP; chain copies: 2;1; label: 5' radiolabel, top strand; blunt
HMGB1 Tailless [4] = biological target: T2, HMGB1 Tailless; assay: EMSA; 0-140 ng tailless HMGB1; EMSA as in ref 30; binding buffer, salt, pH and temperature not given in the material; settings: protein: recombinant; tags: N-terminal His6; label: 5' radiolabel, top strand; blunt
[5] = biological target: cMR1 (core RAG1, MBP fusion);cMR2 (core RAG2, MBP fusion);HMGB1 full-length (;;, UniProt P15919;P21784;P09429 384-1040;1-387;1-215, ||); assay: EMSA; with HMGB1; similar to 23-RSS; EMSA as in ref 30; binding buffer, salt, pH and temperature not given in the material; settings: protein: recombinant;recombinant;recombinant; tags: N-terminal MBP;N-terminal MBP;N-terminal His6; chain copies: 2;1;1; label: 5' radiolabel, top strand; blunt
HMGB1 full-length [6] = biological target: T3, HMGB1 full-length; assay: EMSA; 0-320 ng HMGB1; EMSA as in ref 30; binding buffer, salt, pH and temperature not given in the material; settings: protein: recombinant; tags: N-terminal His6; label: 5' radiolabel, top strand; blunt

T3 sequence (P09429 whole entry, the tested form may be a part): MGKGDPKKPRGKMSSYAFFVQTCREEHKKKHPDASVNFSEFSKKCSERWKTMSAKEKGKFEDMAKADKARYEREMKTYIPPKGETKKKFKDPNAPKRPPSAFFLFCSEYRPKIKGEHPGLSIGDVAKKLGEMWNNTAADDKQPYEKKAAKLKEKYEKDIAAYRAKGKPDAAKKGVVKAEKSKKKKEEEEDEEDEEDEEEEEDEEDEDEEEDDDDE
T2 sequence (P09429 1-163): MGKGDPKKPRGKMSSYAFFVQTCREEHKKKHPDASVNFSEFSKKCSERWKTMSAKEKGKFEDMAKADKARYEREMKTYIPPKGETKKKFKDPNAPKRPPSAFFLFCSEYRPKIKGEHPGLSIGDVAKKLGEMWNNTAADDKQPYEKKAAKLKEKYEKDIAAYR
Chain of cMR1 (core RAG1, MBP fusion);cMR2 (core RAG2, MBP fusion);HMGB1 full-length (P09429 whole entry, the tested form may be a part, one chain of several): as the sequence (P09429 whole entry, the tested form may be a part) above

Molecule	binding signal (HMGB1 Tailless [1])	binding signal (HMGB1 full-length [2])	binding result [3]	binding signal (HMGB1 Tailless [4])	binding result [5]	binding signal (HMGB1 full-length [6])
23-RSS (consensus)	1.5	1.5	–	–	–	–
B1	–	–	binds	~1.5 fold less protein needed than for 23-RSS	binds	~1.5 fold less protein needed than for 23-RSS
